The values that follow come from patent US7582427B2, “Method of estimating drug metabolic activity by analyzing mutations in glucuronosyl transferase gene” (National University Corporation Shiga University of Medical …, priority 2002, dated 2009).

The test system of series [1] is UGT1A1 molecule. Kind of series: UGT activity (glucuronidation) of recombinant UGT1A1 molecules, bilirubin as substrate. The class given is biochemical, human. The conditions noted are these: relative to normal. An excerpt: Further, it was shown that an abnormality of drug metabolism can be assayed for more effectively by combining this detection with detection of (a) mutation(s) in the regions of exons 1 to 4 other than the exon 5 region.

In series [2] the target is T1, UGT1A1 (Homo sapiens, UniProt P22309, Y486D).
T1 sequence (P22309 26-533 Y486D): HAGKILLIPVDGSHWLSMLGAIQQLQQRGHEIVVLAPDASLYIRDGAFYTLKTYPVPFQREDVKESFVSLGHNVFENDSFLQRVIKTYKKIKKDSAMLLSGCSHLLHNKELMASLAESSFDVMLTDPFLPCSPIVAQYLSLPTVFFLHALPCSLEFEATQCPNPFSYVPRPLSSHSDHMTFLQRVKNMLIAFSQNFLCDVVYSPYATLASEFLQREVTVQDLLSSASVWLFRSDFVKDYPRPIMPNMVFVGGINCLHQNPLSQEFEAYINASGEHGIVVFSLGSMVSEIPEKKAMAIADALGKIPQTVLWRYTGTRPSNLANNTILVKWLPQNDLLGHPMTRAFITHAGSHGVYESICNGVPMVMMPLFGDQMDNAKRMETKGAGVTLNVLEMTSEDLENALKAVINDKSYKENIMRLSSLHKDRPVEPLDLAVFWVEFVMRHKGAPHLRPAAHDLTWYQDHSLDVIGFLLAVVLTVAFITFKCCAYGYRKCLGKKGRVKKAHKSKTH
Kind of series: Enzyme kinetics of glucuronidation of 2-amino-5-nitro-4-trifluoromethylphenol by UGT1A1, normal versus Y486D. The class given is biochemical. The text has this: 2-amino-5-nitro-4-trifluoromethylphenol is glucuronidated by UGT. The enzymatic reactions in glucuronidation by the enzymes of each of the isoforms UGT1A1 and UGT1A6 between their normal molecules and molecules with Y486D mutation were compared, respectively.

Series [3] deals with T1, UGT1A1. The conditions noted are these: fraction of normal enzyme activity, background report; cited from earlier work.

Where a chain is given by its changes, count along the chain named. Names may count otherwise.

B1: Y486D (homozygous): recombinant UGT1A1 molecule with Y486D mutation (exon 5), tyrosine replaced with aspartic acid at position 486 (protein, UniProt P22309 26-533, looked up, variant Y486D)
UDP-glucuronosyltransferase …: T1 sequence (P22309 26-533 Y486D)
modifications: homozygous
For the molecule B1, the “UGT relative activity (glucronidation activity)” value (“UGT relative activity” for short) in series [1] came to 8%. The “maximum velocity relative to the maximum velocity of the wild type” value in series [2] (substrate 2-amino-5-nitro-4-trifluoromethylphenol) is listed as “about 12%”. The “Km value relative to wild type” value in series [2] (with respect to 2-amino-5-nitro-4-trifluoromethylphenol) is given as “about half of that of the wild type”; in series [2] (with respect to UDP-glucuronate), “equal to that of the wild type”. The “enzyme activity relative to that of the normal enzyme” value in series [3] is 1/13.

B2: Y486D (heterozygous): recombinant UGT1A1 molecule corresponding to heterozygous Y486D mutation (protein, UniProt P22309 26-533, looked up, variant Y486D)
UDP-glucuronosyltransferase …: T1 sequence (P22309 26-533 Y486D)
modifications: heterozygous
notes: recombinant UGT1A1 molecule corresponding to heterozygous Y486D mutation
On to B2, for which the “UGT relative activity” value in series [1] is 36%.

B3: P229Q (heterozygous): recombinant UGT1A1 molecule corresponding to heterozygous P229Q mutation (protein, UniProt P22309 26-533, looked up, variant P229Q)
UDP-glucuronosyltransferase …: T1 sequence (P22309 26-533 Y486D) with P204Q, D461Y
modifications: heterozygous
notes: recombinant UGT1A1 molecule corresponding to heterozygous P229Q mutation
For B3, the “UGT relative activity” value in series [1] came to 15%.
